Data taken from patent publication US20220332804A1 (CSL INNOVATION, published 2022).

Experiments:
Assay in all cases: SPR, antibody captured, C2 as analyte;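 note: biacore SPR at 37 °C, anti-C2 mAbs captured via goat anti-human IgG on CM5 chips, double-referenced sensorgrams fit to a 1:1 kinetic or steady-state model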
human C2 Y702A = biological target: T1, human C2 Y702A (human, UniProt P06681 21-752)
T1 sequence: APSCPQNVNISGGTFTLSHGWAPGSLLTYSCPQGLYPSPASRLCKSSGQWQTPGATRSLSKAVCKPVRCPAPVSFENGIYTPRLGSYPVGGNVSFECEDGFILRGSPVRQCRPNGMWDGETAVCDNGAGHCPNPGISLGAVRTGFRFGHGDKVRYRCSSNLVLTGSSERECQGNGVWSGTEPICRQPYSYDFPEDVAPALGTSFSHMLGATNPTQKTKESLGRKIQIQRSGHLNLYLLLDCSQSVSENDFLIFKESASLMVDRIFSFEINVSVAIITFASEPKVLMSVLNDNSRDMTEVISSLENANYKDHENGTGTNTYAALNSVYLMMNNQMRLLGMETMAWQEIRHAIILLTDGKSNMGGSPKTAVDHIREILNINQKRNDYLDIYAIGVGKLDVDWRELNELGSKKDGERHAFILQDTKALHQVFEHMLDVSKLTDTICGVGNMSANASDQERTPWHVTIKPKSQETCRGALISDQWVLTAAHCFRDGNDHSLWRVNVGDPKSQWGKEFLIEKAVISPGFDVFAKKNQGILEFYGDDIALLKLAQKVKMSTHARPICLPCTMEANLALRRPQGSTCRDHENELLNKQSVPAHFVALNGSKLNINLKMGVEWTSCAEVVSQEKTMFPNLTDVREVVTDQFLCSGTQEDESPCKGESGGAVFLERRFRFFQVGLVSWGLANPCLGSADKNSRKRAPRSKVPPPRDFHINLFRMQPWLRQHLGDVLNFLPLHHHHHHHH

human C2 E532A = biological target: T2, human C2 E532A (human, UniProt P06681 21-752)
T2 sequence: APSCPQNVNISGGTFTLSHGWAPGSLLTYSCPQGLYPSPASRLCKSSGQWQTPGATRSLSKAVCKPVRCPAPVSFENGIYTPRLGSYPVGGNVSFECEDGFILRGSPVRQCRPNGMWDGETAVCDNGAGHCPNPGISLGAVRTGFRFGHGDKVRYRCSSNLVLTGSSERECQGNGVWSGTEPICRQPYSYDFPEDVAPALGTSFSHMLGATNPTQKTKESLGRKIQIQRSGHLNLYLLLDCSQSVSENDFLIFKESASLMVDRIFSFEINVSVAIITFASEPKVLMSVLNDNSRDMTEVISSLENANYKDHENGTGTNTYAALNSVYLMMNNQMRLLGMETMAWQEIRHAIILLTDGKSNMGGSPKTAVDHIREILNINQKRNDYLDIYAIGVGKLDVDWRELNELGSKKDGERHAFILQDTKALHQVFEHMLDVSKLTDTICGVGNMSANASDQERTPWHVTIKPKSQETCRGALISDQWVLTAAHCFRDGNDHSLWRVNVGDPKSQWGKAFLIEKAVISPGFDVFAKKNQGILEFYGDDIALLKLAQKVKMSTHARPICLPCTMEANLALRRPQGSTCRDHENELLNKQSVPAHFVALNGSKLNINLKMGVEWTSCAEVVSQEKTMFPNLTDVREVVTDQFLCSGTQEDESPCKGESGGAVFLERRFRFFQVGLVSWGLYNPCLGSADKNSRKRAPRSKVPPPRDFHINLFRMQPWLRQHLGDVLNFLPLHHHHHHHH

human C2 Y328A = biological target: T3, human C2 Y328A (human, UniProt P06681 21-752)
T3 sequence: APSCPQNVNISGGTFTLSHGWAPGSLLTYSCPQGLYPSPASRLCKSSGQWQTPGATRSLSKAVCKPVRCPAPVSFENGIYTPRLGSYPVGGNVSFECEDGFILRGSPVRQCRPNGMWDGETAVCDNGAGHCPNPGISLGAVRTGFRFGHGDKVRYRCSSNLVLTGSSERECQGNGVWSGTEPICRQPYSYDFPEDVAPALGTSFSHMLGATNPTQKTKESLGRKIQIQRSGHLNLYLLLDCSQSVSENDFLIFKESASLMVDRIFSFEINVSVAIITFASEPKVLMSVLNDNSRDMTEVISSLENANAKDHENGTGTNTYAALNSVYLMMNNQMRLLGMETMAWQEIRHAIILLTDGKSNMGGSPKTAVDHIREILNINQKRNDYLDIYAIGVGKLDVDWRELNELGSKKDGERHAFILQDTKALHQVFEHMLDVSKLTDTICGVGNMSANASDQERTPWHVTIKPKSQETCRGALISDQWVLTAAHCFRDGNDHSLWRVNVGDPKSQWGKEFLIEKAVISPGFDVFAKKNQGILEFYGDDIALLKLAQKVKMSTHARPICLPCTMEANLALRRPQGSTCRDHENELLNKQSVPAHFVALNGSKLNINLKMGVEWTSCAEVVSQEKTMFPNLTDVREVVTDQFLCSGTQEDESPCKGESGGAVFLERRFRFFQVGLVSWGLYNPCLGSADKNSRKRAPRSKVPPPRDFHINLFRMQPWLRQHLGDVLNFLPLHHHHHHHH

human C2 F270A = biological target: T4, human C2 F270A (human, UniProt P06681 21-752)
T4 sequence: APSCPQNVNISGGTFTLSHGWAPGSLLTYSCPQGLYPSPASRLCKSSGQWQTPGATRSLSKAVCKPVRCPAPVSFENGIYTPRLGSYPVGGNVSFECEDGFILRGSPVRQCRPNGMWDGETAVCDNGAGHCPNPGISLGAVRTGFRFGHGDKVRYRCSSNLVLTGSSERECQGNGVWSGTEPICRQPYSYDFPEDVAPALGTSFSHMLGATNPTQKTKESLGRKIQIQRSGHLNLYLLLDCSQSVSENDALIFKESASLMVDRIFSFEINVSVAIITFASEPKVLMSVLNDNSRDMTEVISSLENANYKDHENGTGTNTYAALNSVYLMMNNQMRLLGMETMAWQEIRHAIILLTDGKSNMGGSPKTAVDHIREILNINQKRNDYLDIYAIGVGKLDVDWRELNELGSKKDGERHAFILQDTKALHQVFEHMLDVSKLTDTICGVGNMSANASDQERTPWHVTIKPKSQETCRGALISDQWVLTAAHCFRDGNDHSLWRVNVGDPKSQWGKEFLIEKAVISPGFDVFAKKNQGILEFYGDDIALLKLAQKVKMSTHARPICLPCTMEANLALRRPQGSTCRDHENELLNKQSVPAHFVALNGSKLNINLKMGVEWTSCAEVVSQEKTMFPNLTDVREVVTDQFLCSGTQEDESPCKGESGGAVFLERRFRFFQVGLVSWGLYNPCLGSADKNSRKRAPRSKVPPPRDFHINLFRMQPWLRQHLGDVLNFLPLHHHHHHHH

B1: RF16-226 (antibody, human IgG4 S228P, lambda)
heavy: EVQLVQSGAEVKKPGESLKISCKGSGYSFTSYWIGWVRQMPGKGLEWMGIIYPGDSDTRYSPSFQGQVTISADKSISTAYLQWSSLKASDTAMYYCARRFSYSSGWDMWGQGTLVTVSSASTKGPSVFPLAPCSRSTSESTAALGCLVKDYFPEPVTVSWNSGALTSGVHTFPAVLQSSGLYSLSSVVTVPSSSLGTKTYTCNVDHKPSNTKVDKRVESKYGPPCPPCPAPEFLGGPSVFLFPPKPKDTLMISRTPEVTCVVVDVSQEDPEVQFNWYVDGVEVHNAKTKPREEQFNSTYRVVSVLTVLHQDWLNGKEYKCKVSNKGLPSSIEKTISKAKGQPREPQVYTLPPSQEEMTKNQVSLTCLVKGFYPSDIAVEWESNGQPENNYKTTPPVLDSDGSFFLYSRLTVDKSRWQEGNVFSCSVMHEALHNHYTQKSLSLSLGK
light: SYELTQPPSVSVSPGQTARITCSGDALTSKYVAWYQQKSGLAPLLVIYEDTRRPSGIPAKFSGSSSGSVATLTISGAHGDDEADYYCYSTDASGHQRVFGGGTKLTVLSQPKAAPSVTLFPPSSEELQANKATLVCLISDFYPGAVTVAWKADGSPVKAGVETTKPSKQSNNKYAASSYLSLTPEQWKSHRSYSCQVTHEGSTVEKTVAPTECS
notes: pH-dependent anti-C2 antibody from a phage display library; also called WT
- Kd (human C2 Y702A): 106 nM
- Kd (human C2 E532A): 17.2 nM
- Kd (human C2 Y328A): 78.4 nM
- Kd (human C2 F270A): 96.8 nM
